Data from publication PMC12117401.

Biological target: Nb55 (Lama glama (llama immune VHH library), UniProt PDB:9GXH_1)
Experiment: ITC

Binder	binding result
GGTGGGTGTGGTTGG (structured_DNA) [TBA T4G]	no binding
GAAAAACCCCCTTTTTC (structured_DNA) [B-DNA hairpin]	no binding
TGAGGGTGGGTAGGGTGGGTAA (structured_DNA) [c-Myc]	no binding
GACCCCGCCCCCGGCCCGCCCCCG (structured_DNA) [VEGF]	no binding
GGGCGCGGGAGGAATTGGGCGGG (structured_DNA) [Bcl2]	no binding
